Experimental findings from patent publication US20160289285A1 (Molecular Partners, published 2016) are described below.

Experiment [1] concerns the target T1, human VEGF-A (human, UniProt P15692-4 27-191, limits assumed).
T1 construct: Recombinant, bought or produced in CHO or Pichia pastoris; also called hVEGF-A
Kind of experiment: ELISA; species of VEGF-A not stated. (In general: ELISA stands for enzyme-linked immunosorbent assay.)

The target in experiment [2] is T2, human HGF (human, UniProt P14210 32-728).
T2 construct: also called hepatocyte growth factor
T2 sequence (P14210 32-728 limits assumed): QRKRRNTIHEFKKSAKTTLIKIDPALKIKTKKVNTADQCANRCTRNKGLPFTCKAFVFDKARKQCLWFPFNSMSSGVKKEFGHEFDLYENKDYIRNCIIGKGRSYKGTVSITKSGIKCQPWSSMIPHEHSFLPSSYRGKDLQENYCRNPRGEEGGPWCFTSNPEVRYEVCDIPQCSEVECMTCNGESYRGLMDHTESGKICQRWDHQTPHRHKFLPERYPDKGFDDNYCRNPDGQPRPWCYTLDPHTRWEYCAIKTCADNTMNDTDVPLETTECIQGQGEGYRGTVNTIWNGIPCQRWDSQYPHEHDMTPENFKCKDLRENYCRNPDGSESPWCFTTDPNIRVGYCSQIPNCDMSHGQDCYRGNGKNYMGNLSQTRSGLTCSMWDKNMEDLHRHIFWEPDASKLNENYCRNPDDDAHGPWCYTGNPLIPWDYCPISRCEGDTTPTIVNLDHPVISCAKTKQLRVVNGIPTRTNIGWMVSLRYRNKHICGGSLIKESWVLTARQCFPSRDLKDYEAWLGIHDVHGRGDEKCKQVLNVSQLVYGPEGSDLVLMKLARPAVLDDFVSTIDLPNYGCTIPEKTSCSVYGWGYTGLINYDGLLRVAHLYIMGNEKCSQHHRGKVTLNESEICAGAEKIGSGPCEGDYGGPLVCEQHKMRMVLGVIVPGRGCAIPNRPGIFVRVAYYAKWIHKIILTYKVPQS
Description: ELISA; species of HGF not stated.

For experiment [3], the target named is T2, human HGF. Description: ELISA, EC50 comparison.
For experiment [4], the target named is T1, human VEGF-A. Description: ELISA, EC50 comparison.
The target in experiment [5] is T2, human HGF. Description: SPR (ProteOn). The method, then:
SPR was measured using a ProteOn instrument (BioRad) and measurement was performed according standard procedures known to the person skilled in the art.

The target in experiment [6] is T2, human HGF. Description: cMet receptor competition ELISA; 5 nM human HGF, immobilised human cMet. An excerpt: (§1) Such assays are well known to the person skilled in the art. For designed ankyrin repeat domains with binding specificity to VEGF-A, a quantitative sandwich enzyme immunoassay technique was used according to the manufacturer (VEGF-A Quantikine kit DVE00, R&D Systems). A monoclonal antibody specific for VEGF-A was pre-coated onto a microplate. VEGF-A standards and mixtures of VEGF-A (20 pM) and Protein #18, #19, or #20 at varying concentrations were applied to the wells and any free VEGF-A present (i.e. not bound to the designed ankyrin repeat domain) is bound by the immobilized antibody. After washing away any unbound substances, an enzyme-linked polyclonal antibody specific for VEGF-A is added to the wells. Following a wash to remove any unbound antibody-enzyme reagent, a substrate solution is added to the wells and color develops in proportion to the amount of VEGF-A bound in the initial step. The color development is stopped and the intensity of the color is measured. […] IC₅₀ values were calculated from such titration curves obtained as described above using Graph Pad Prism software and standard procedures known to the person skilled in the art. For designed ankyrin repeat domains with binding specificity to HGF, a cMet receptor competition assay was performed. For that purpose, 5 nM of human cMet receptor in PBS were immobilized on Maxisorp plates overnight at 4° C. After washing with PBS 0.05% TWEEN 20, the plate was blocked for 2 h with shaking at 300 rpm using PBS containing 0.05% TWEEN 20 and 0.25% Casein at RT. A constant concentration of 5 nM human HGF was pre-incubated for 30 min at RT with a 1000 nM-1 pM of Proteins #23, #26, #28, and #29 (1:4 dilution series each) on a dilution plate in PBS 0.05% TWEEN 20. After washing of the ELISA plate with PBS 0.05% TWEEN, pre-incubated samples were transferred to the ELISA plate and plate was incubated for 2 h at RT with shaking at 300 rpm. After washing with PBS 0.25% TWEEN, 200 ng/ml anti human HGF antibody was added for 1 h at RT with shaking at 300 rpm. After washing with PBS 0.05% TWEEN, 100 ng/ml HRP conjugated polyclonal anti HGF species antibody was added for 30 min at RT with shaking at 300 rpm. Detection was using 1:3 diluted BM blue POD (Roche).

For the next experiment, the target named is T3, human serum albumin (human, UniProt P02768 25-609).
T3 construct: For SEC-MALS purified from CSL Behring 20% solution; also called HSA; SA (human)
T3 sequence (P02768 25-609 limits assumed): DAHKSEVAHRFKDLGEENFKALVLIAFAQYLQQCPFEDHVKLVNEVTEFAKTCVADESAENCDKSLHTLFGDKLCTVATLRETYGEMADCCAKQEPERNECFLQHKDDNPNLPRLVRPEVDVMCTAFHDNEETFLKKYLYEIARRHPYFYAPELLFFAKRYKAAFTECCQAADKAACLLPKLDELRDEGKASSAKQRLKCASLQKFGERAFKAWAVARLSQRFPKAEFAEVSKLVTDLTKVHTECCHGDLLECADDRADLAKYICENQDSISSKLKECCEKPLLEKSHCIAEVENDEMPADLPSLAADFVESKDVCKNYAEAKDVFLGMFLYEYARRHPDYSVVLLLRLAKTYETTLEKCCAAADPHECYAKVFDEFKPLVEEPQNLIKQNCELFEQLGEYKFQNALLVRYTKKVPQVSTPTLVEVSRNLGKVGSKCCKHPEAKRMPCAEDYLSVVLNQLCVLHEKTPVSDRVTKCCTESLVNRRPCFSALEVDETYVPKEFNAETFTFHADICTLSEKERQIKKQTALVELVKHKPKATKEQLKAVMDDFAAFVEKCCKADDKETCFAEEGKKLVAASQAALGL
Description: ELISA, immobilised human serum albumin. The method, then: 100 μl or 50 μl of 20 nM target (VEGF-A, HGF, or serum albumin) in PBS per well were immobilized in a Maxisorp plate (Nunc, Denmark) overnight at 4° C. After washing 5 times with 300 μl PBST (PBS supplemented with 0.1% Tween 20), the wells were blocked with 300 μl PBST-C (PBST supplemented with 0.25% casein) for 2 h at room temperature with shaking at 450 rpm on a Titramax 1000 shaker (Heidolph, Germany). […] After washing 5 times as described above, bound anti-designed ankyrin repeat domain antibody was detected using 100 μl or 50 μl/well goat anti-rabbit IgG-HRP conjugate in PBST-C for 1 h at room temperature with shaking at 450 rpm. After washing 5 times as described above, the ELISA was then developed using 100 μl BM soluble blue POD substrate (Roche, Switzerland), diluted 1:4 in water. The reaction was stopped after 5 min using 100 μl 1 M H₂SO₄. The OD (OD 450 nm-OD 620 nm) was then recorded.
Cynomolgus monkey VEGF-A is identical to human VEGF-A and was thus not tested separately.

Experiment [7] addresses T1, human VEGF-A. Kind of experiment: VEGF-A Quantikine competition ELISA; competitor: immobilised anti-VEGF-A monoclonal antibody.
From the text: as §1, with “After washing with PBS 0.05% TWEEN, 100 ng/ml HRP conjugated polyclonal anti HGF species antibody was added for 30 min at RT with shaking at 300 rpm. Detection was using 1:3 diluted BM blue POD (Roche).” left out

T1 sequence (P15692 other isoform, or with tags, fused parts or gaps limits assumed): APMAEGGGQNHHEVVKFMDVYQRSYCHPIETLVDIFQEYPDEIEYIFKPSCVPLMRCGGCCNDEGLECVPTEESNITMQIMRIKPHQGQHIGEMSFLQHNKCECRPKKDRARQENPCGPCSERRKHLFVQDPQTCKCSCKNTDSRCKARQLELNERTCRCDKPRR

B1: Protein #69 (designed binder)
chain: MRGSHHHHHHGSDLGKKLLEAARAGQDDEVRILMANGADVNAKDYFSHTPLHLAARNGHLKIVEVLLKAGADVNAKDFAGKTPLHLAANDGHLEIVEVLLKHGADVNAQDIFGKTPADIAADAGHEDIAEVLQKLGSPTPTPTTPTPTPTTPTPTPTGSRSDLDKKLLEAARAGQDDEVRILLKAGADVNAKDYLGWTPLHLAAHEGHLEIVEVLLKAGADVNAKDVSGYTPLHLAAADGHLEIVEVLLKAGADVNAKDNTGWTPLHLSADLGHLEIVEVLLKAGADVNAQDKFGKTAFDISIDNGNEDLAEILQKLGSPTPTPTTPTPTPTTPTPTPTGSRSDLGKKLLEAARAGQDDEVRILLKAGADVNAKDRYGDTPLHLAADAGHLKIVEVLLKAGADVNAEDYFGNTPLHLAASAGHLEIVEVLLKAGADVNAKDDAGNTPLHLAANTGHLKIVEVLLKAGADVNAQDKSGKTPADLAADAGHEDIAEVLQKLN
Turning to B1, the values for the half-maximal effective concentration (EC50) with human VEGF-A [1] and in the experiment with human HGF [2] were 0.102 nM and 0.117 nM, respectively. Besides, the “factor more potent (EC50) than Protein #71” value with human HGF [3] worked out at 1.3 fold; with human VEGF-A [4] it was 2 fold.

B2: Protein #26 (designed binder)
chain: MRGSHHHHHHGSDLGKKLLEAARAGQDDEVRILLKAGADVNAKDRYGDTPLHLAADIGHLEIVEVLLKAGADVNAEDYFGNTPLHLAASYGHLEIVEVLLKAGADVNAKDDYGNTPLHLAANTGHLEIVEVLLKAGADVNAQDKSGKTPADLAADAGHEDIAEVLQKAA
B2 had a dissociation constant (Kd) with human HGF [5] of 0.051 nM. Also, the half-maximal inhibitory concentration (IC50) in the experiment with human HGF [6] was found to be 0.623 nM.

B3: Protein #61 (designed binder)
chain: MRGSHHHHHHGSDLGKKLLEAARAGQDDEVRELLKAGADVNAKDYFSHTPLHLAARNGHLKIVEVLLKAGADVNAKDFAGKTPLHLAANEGHLEIVEVLLKAGADVNAQDIFGKTPADIAADAGHEDIAEVLQKAAGSPTPTPTTPTPTPTTPTPTPTGSDLDKKLLEAARAGQDDEVRILLKAGADVNAKDSTGWTPLHLAAPWGHPEIVEVLLKAGADVNAKDFQGWTPLHLAAAAGHLEIVEVLLKAGADVNAQDKSGKTPADLAADAGHEDIAEVLQKAA
Regarding B3, the EC50 with human serum albumin came out at 0.322 nM.

B4: Protein #29 (designed binder)
chain: MRGSHHHHHHGSDLGKKLLEAARAGQDDEVRILMANGADVNAKYEDGLTPLHLAAFYGHLEIVEVLLKHGADVNATDAWGHTPLHLAAYYGHLEIVEVLLKYGADVNTHDKEGMTALHLAALTGHLEIVEVLLKNGADVNAQDKFGKTAFDISIDNGNEDLAEILQKAA
B4: in the experiment with human HGF [5], the dissociation constant (Kd) was 0.025 nM. In the experiment with human HGF [6], this molecule displayed an IC50 of 1.36 nM.

B5: Protein #20 (designed binder)
chain: MRGSHHHHHHGSDLDKKLLEAARAGQDDEVRILLKAGADVNAKDSTGWTPLHLAAPWGHPEIVEVLLKAGADVNAKDFQGWTPLHLAAAVGHLEIVEVLLKAGADVNAQDKSGKTPADLAADAGHEDIAEVLQKAA
Take B5: the IC50 in the experiment with human VEGF-A [7] amounted to 0.004 nM.

B6: Protein #18 (designed binder)
chain: MRGSHHHHHHGSDLDKKLLEAARAGQDDEVRILLKAGADVNAKDSTGWTPLHLAAPWGHPEIVEVLLKAGADVNAKDFQGWTPLHLAAAAGHLEIVEVLLKAGADVNAQDKSGKTPADLAADAGHEDIAEVLQKAA
In turn, B6 had an IC50 in the experiment with human VEGF-A [7] of 0.013 nM.

B7: Protein #19 (designed binder)
chain: MRGSHHHHHHGSDLGKKLLEAARAGQDDEVRILLKAGADVNAKDSTGWTPLHLAAPWGHPEIVEVLLKAGADVNAKDFQGWTPLHLAAAAGHLEIVEVLLKAGADVNAQDKSGKTPADLAADAGHEDIAEVLQKAA
In turn, B7 gave a 50% inhibitory concentration (IC50) with human VEGF-A [7] of 0.013 nM.

B8: Protein #60 (designed binder)
chain: MRGSHHHHHHGSDLGKKLLEAARAGQDDEVRELLKAGADVNAKDYFSHTPLHLAARNGHLKIVEVLLKAGADVNAKDFAGKTPLHLAANEGHLEIVEVLLKAGADVNAQDIFGKTPADIAADAGHEDIAEVLQKAAGSPTPTPTTPTPTPTTPTPTPTGSDLGKKLLEAARAGQDDEVRILLKAGADVNAKDRYGDTPLHLAADIGHLEIVEVLLKAGADVNAEDYFGNTPLHLAASYGHLEIVEVLLKAGADVNAKDDYGNTPLHLAANTGHLEIVEVLLKAGADVNAQDKSGKTPADLAADAGHEDIAEVLQKAA
In the experiment with human serum albumin, B8 returned an EC50 of 0.225 nM.

B9: Protein #71 (designed binder)
chain: MRGSHHHHHHGSDLGKKLLEAARAGQDDEVRILMANGADVNAKDYFSHTPLHLAARNGHLKIVEVLLKAGADVNAKDFAGKTPLHLAANDGHLEIVEVLLKHGADVNAQDIFGKTPADIAADAGHEDIAEVLQKLGGGGSGGGGSGGGGSGGGGSRSDLDKKLLEAARAGQDDEVRILLKAGADVNAKDYLGWTPLHLAAHEGHLEIVEVLLKAGADVNAKDVSGYTPLHLAAADGHLEIVEVLLKAGADVNAKDNTGWTPLHLSADLGHLEIVEVLLKAGADVNAQDKFGKTAFDISIDNGNEDLAEILQKLGGGGSGGGGSGGGGSGGGGSRSDLGKKLLEAARAGQDDEVRILLKAGADVNAKDRYGDTPLHLAADAGHLKIVEVLLKAGADVNAEDYFGNTPLHLAASAGHLEIVEVLLKAGADVNAKDDAGNTPLHLAANTGHLKIVEVLLKAGADVNAQDKSGKTPADLAADAGHEDIAEVLQKLN
As for B9, the EC50 with human VEGF-A [1] was 0.205 nM; in the experiment with human HGF [2], 0.179 nM.

B10: Protein #28 (designed binder)
chain: MRGSHHHHHHGSDLGMKLLEAARAGQDDEVRILMANGADVNAHDTWGLTPLHLAAFHGHQEIVEVLLKHGADVNAQDFYGKTPLHLAALRGHLEIVEVLLKYGADVNAQDQFGKTAFDISIDNGNEDLAEILQKAA
Consider B10, for which binding with human HGF [5] was characterised by a dissociation constant (Kd) of 0.026 nM. The half-maximal inhibitory concentration (IC50) with human HGF [6] was determined as 0.955 nM.

B11: Protein #107 (designed binder)
chain: MRGSHHHHHHGSDLGKKLLEAARAGQDDEVRELLKAGADVNAKDYFSHTPLHLAARNGHLKIVEVLLKAGADVNAKDFAGKTPLHLAANDGHLEIVEVLLKAGADVNAQDIFGKTPADIAADAGHEDIAEVLQKAAGSPTPTPTTPTPTPTTPTPTPTGSDLDKKLLEAARAGQDDEVRILLKAGADVNAKDSTGWTPLHLAAPWGHPEIVEVLLKAGADVNAKDYQGWTPLHLAAAVGHLEIVEVLLKAGADVNAQDKSGKTPADLAADAGHEDIAEVLQKAAGSPTPTPTTPTPTPTTPTPTPTGSDLGKKLLEAARAGQDDEVRILLKAGADVNAKDRYGDTPLHLAADAGHLKIVEVLLKAGADVNAEDYFGNTPLHLAASAGHLEIVEVLLKAGADVNAKDDAGNTPLHLAANTGHLKIVEVLLKAGADVNAQDKSGKTPADLAADAGHEDIAEVLQKAAGSPTPTPTTPTPTPTTPTPTPTGSDLGKKLLEAARAGQDDEVRELLKAGADVNAKDYFSHTPLHLAARNGHLKIVEVLLKAGADVNAKDFAGKTPLHLAANDGHLEIVEVLLKAGADVNAQDIFGKTPADIAADAGHEDIAEVLQKAA
In the case of B11, the concentration giving a half-maximal response (EC50) with human VEGF-A [1] turned out to be 0.073 nM; with human HGF [2], 0.107 nM. Also, the results for the “factor more potent (EC50) than Protein #69” value in the experiment with human HGF [3] and with human VEGF-A [4] were 1.1 fold and 1.4 fold, respectively.

As usually defined, the EC50 is the concentration needed to bring the measured effect to its halfway point. Read a low EC50 as greater potency. The Kd is the concentration at which binding is half-saturated. Broadly, the IC50 is the concentration needed to halve the response being measured.
